Experimental findings from PMC3757182, “ATPase Mechanism of the 5′-3′ DNA Helicase, RecD2” (The Journal of Biological Chemistry, 2013) are described below.

In general, Kd refers to the concentration at which binding is half-saturated. Broadly, the Km is the substrate concentration at which the rate is half of its maximum. As usually defined, the kcat is the number of substrate molecules converted per active site and unit of time at saturation.

Data set [1] concerns the target T1, PcrA (Geobacillus stearothermophilus, UniProt P56255).
T1 construct: recombinant, prepared as described previously
T1 sequence (P56255 1-724): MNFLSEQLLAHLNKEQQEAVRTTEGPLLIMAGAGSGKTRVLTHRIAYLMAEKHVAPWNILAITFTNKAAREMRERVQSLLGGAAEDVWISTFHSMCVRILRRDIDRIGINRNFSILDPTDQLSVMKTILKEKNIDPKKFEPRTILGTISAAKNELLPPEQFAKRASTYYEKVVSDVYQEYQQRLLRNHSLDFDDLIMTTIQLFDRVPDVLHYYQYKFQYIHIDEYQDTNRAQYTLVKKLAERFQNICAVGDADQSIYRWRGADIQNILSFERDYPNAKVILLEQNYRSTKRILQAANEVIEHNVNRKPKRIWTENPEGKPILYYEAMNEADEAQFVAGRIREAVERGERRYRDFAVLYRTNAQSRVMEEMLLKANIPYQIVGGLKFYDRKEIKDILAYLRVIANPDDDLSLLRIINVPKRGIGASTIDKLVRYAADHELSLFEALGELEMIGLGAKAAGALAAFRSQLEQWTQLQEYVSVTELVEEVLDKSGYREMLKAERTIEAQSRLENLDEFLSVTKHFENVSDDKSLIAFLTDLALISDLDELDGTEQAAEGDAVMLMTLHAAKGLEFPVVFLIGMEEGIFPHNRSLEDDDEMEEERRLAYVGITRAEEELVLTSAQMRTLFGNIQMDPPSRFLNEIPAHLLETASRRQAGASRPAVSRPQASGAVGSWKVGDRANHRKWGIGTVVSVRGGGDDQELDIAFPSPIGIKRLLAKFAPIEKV
Briefly: stopped-flow fluorescence, koff/kon. The class given is binding.

Data set [2] deals with T1, PcrA. Description: stopped-flow fluorescence, quench-flow HPLC, Pi release, single turnover. The class given is biochemical. To be noted: 8 μM PcrA, 10 μM dT20, 2 μM deac-aminoATP; 3 mM MgCl2, pH 7.5; labelled compound.
Substrate in data set [3]: Nc1ncnc2c1ncn2[C@@H]1O[C@H](COP(=O)(O)OP(=O)(O)OP(=O)(O)O)[C@@H](O)[C@H]1O
Briefly: steady-state ATPase, MDCC-PBP phosphate release. To be noted: with 500 nM dT20 ssDNA, 10 mM MgCl2, pH 7.5, 20 °C. The class given is biochemical, Deinococcus radiodurans. An excerpt:
(§1) steady-state ATPase, MDCC-PBP phosphate release on RecD2

Substrate in data set [4]: CNc1ccccc1C(=O)O[C@H]1C[C@H](n2cnc3c(N)ncnc32)O[C@@H]1COP(=O)(O)OP(=O)(O)OP(=O)(O)O
Description: steady-state ATPase, MDCC-PBP phosphate release. It counts as biochemical, Deinococcus radiodurans. To be noted: with 500 nM dT20 ssDNA, 10 mM MgCl2, pH 7.5, 20 °C.
Description: as §1

Consider `CCN(CC)c1ccc2cc(C(=O)N[C@H]3[C@@H](O)[C@H](n4cnc5c(N)ncnc54)O[C@@H]3COP(=O)(O)OP(=O)(O)O)c(=O)oc2c1` [deac-aminoADP], for which, at PcrA [1], the Kd was 1700 nM.

Take `CCN(CC)c1ccc2cc(C(=O)N[C@H]3[C@@H](O)[C@H](n4cnc5c(N)ncnc54)O[C@@H]3COP(=O)(O)OP(=O)(O)OP(=O)(O)O)c(=O)oc2c1` [deac-aminoATP, 3′-(7-diethylaminocoumarin-3-carbonylamino)-3′-deoxyadenosine-5′-triphosphate]: the “stopped-flow fluorescence, quench-flow HPLC, Pi release, single turnover” value at PcrA [2] is listed as “After mixing excess PcrA·dT20 with deac-aminoATP, there was a biphasic increase in fluorescence”.

B1: RecD2 (Deinococcus radiodurans R1 = ATCC 13939 = DSM 20539) (protein)
chain: SQQGLERRLLAGLQGLGLTINQAQRAVKHFGADALDRLEKDLFTLTEVEGIGFLTADKLWQARGGALDDPRRLTAAAVYALQLAGTQAGHSFLPRSRAEKGVVHYTRVTPGQARLAVETAVELGRLSEDDSPLFAAEAAATGEGRIYLPHVLRAEKKLASLIRTLLATPPADGAGNDDWAVPKKARKGLSEEQASVLDQLAGHRLVVLTGGPGTGKSTTTKAVADLAESLGLEVGLCAPTGKAARRLGEVTGRTASTVHRLLGYGPQGFRHNHLEPAPYDLLIVDEVSMMGDALMLSLLAAVPPGARVLLVGDTDQLPPVDAGLPLLALAQAAPTIKLTQVYRQAAKNPIIQAAHGLLHGEAPAWGDKRLNLTEIEPDGGARRVALMVRELGGPGAVQVLTPMRKGPLGMDHLNYHLQALFNPGEGGVRIAEGEARPGDTVVQTKNDYNNEIFNGTLGMVLKAEGARLTVDFDGNVVELTGAELFNLQLGYALTVHRAQGSEWGTVLGVLHEAHMPMLSRNLVYTALTRARDRFFSAGSASAWQIAAARQREARNTALLERIRAH
notes: N-terminal truncation lacking the first 150 amino acids; recombinant; monomer
On to B1, for which, in data set [3], the Km is 30.3 ± 1.5 µM and the catalytic constant (kcat) is 86.9 ± 1.5 s⁻¹. Also, in data set [4], the Km was 12.1 ± 1.7 µM and the kcat is 40.2 ± 2.4 s⁻¹.
